Experiment [1] has as its target CD28 receptor loaded onto anti-human capture sensor (ForteBio Octet AHC) (UniProt P10747 19-152). Kind of experiment: ForteBio Octet BLI, receptor on AHC sensor. The protocol: (§1) Each titration was globally fit to calculate the association (kₒₙ) and dissociation (Kdis) of each protein. […] The dissociation constant (KD) was calculated and compared to wildtype to determine a fold improvement value (fold imp.).
(In general: Biolayer interferometry detects binding as a change in optical thickness at a sensor tip.)

For experiment [2], the target named is CTLA-4 receptor loaded onto anti-human capture sensor (ForteBio Octet AHC) (UniProt P16410 37-162, limits assumed). Kind of experiment: ForteBio Octet BLI, receptor on AHC sensor. The protocol: as §1
In experiment [3] the target is T1, ICOS receptor loaded onto anti-human capture sensor (ForteBio Octet AHC) (UniProt Q9Y6W8 21-141, limits assumed).
T1 sequence (looked up): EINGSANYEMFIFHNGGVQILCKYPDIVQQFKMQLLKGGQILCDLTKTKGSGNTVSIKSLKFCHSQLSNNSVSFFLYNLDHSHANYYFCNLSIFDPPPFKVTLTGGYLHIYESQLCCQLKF
Kind of experiment: ForteBio Octet BLI, receptor on AHC sensor. Here is the method:
as §1

Experiment [4] has as its target T2, human CTLA-4, full-length, on transfected cells (human, UniProt P16410 36-223).
T2 construct: whole, on cells; also called CTLA-4 tfxn
Kind of experiment: flow cytometry on transfected HEK293 cells. Here is the method:
(§2) Binding studies were carried out on transfected HEK293 cells generated to express the full-length mammalian (human) surface ligands, CD28, ICOS or CTLA-4, using a transient transfection system (Life Technologies, USA). As a control, binding to mock (non-transfected) cells also was assessed. For staining by flow cytometry, 200,000 cells of appropriate transient transfection or negative control (mock) were plated in 96 well round bottom plates, and, then incubated in staining buffer (PBS, phosphate buffered saline; 1% BSA, bovine serum albumin; and 0.1% sodium azide) for 20 minutes to block non-specific binding. Cells were resuspended in staining buffer containing 100 nM to 1 nM variant immunomodulatory protein in 50 μL. Mean Fluorescence Intensity (MFI) was calculated for each transfectant and negative parental line with Cell Quest Pro software (Becton Dickinson, USA) or a Hypercyt flow cytometer (Intellicyte, USA).
(§3) Binding was assessed substantially as described in Example 1 on transfected HEK293 cells generated to express the full-length surface ligands CD28, ICOS or CTLA-4 from human, cynomolgus monkey, rat or mouse. Transfection was carried out using a transient transfection system (Life Technologies, USA). As a control, binding to mock (non-transfected) cells also was assessed.
In general terms: A flow cytometer gives signals particle by particle.

For experiment [5], the target named is T3, rat CD28, full-length, on transfected HEK293 cells (rat, UniProt P31042 20-218).
T3 construct: whole, on cells
Kind of experiment: flow cytometry on transfected HEK293 cells. Here is the method: as §2, §3

For experiment [6], the target named is T4, rat ICOS, full-length, on transfected HEK293 cells (rat, UniProt Q9R1T7 21-200).
T4 construct: whole, on cells
T4 sequence (looked up): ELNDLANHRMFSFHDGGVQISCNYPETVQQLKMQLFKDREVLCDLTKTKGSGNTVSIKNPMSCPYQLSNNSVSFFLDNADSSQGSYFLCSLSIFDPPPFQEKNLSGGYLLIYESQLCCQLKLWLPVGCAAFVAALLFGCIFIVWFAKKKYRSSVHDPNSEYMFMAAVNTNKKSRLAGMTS
Kind of experiment: flow cytometry on transfected HEK293 cells. Here is the method:
as §2, §3

Experiment [7] deals with T5, mouse CD28, full-length, on transfected HEK293 cells (mouse, UniProt P31041 20-218).
T5 construct: whole, on cells
Kind of experiment: flow cytometry on transfected HEK293 cells. Here is the method:
as §2, §3

Experiment [8] has as its target T6, mouse ICOS, full-length, on transfected HEK293 cells (mouse, UniProt Q9WVS0 21-200).
T6 construct: whole, on cells
T6 sequence (looked up): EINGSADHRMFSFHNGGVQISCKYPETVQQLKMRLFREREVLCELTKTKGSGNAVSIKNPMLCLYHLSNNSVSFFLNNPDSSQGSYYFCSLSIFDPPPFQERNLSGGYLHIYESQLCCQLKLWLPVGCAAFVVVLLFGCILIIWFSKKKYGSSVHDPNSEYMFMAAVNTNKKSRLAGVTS
Kind of experiment: flow cytometry on transfected HEK293 cells. The protocol: as §2, §3

Experiment [9] addresses T7, mouse CTLA-4, full-length, on transfected HEK293 cells (mouse, UniProt P09793 36-223).
T7 construct: whole, on cells
Kind of experiment: flow cytometry on transfected HEK293 cells. Here is the method: as §2, §3

In experiment [10] the target is T8, human CD28, full-length, on transfected cells (human, UniProt P10747 19-220).
T8 construct: whole, on cells; also called CD28 tfxn
Kind of experiment: flow cytometry on CHO cells expressing CD28, anti-human IgG-PE.

In experiment [11] the target is T9, human ICOS, full-length, on transfected cells (human, UniProt Q9Y6W8 21-199).
T9 construct: whole, on cells; also called ICOS tfxn
T9 sequence (looked up): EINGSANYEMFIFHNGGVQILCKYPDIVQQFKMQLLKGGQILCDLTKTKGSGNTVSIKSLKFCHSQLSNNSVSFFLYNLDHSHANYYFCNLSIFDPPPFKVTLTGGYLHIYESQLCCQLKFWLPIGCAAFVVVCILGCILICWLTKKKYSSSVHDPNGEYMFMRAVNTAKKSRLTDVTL
Kind of experiment: flow cytometry on CHO cells expressing ICOS, anti-human IgG-PE.

T2 sequence (P16410 36-223): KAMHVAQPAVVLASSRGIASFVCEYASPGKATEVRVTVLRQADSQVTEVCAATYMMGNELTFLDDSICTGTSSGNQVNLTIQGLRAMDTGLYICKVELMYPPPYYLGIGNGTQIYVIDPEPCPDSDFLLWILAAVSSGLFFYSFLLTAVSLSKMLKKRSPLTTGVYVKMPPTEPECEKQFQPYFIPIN
T3 sequence (P31042 20-218): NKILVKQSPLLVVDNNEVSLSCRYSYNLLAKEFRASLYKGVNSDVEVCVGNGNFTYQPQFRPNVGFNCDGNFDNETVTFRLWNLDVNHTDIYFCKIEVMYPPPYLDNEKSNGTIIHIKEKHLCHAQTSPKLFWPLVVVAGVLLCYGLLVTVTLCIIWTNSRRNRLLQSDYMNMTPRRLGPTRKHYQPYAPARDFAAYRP
CTLA-4 receptor loaded onto anti-human capture sensor (ForteBio Octet AHC), sequence (P16410 37-162 limits assumed): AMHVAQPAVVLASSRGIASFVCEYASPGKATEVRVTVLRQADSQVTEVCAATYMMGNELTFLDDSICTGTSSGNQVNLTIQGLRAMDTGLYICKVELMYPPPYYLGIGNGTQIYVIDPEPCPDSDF
T5 sequence (P31041 20-218): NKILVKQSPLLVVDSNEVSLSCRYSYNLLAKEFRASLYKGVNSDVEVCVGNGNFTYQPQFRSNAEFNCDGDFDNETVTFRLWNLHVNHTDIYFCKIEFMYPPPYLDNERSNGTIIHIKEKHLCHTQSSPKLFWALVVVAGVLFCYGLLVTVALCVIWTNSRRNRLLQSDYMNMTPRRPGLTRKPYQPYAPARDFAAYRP

B1: wildtype PD-L2 ED-Fc fusion molecule (Fc fusion, UniProt Q9BQ51 20-220, looked up)
chain: LFTVTVPKELYIIEHGSNVTLECNFDTGSHVNLGAITASLQKVENDTSPHRERATLLEEQLPLGKASFHIPQVQVRDEGQYQCIIIYGVAWDYKYLTLKVKASYRKINTHILKVPETDEVELTCQATGYPLAEVSWPNVSVPANTSHSRTPEGLYQVTSVLRLKPPPGRNFSCVFWNTHVRELTLASIDLQSQMEPRTHPT
notes: extracellular domain; Control protein in the ForteBio assays; also called PD-L2-Fc; not shown: Fc part and any linker are not described
As to B1, the Response in experiment [1] is -0.04; in experiment [2] it was 0; in experiment [3], 0.03.

B2: variant ICOSL IgV-Fc (N52H/N57Y/Q100R) (Fc fusion)
chain: DTQEKEVRAMVGSDVELSCACPEGSRFDLNDVYVYWQTSESKTVVTYHIPQHSSLEYVDSRYRNRALMSPAGMLRGDFSLRLFNVTPQDEQKFHCLVLSRSLGFQEVLSVEVTLHVAANFSVGGGGSGGGGSEPKSSDKTHTCPPCPAPEAEGAPSVFLFPPKPKDTLMISRTPEVTCVVVDVSHEDPEVKFNWYVDGVEVHNAKTKPREEQYNSTYRVVSVLTVLHQDWLNGKEYKCKVSNKALPAPIEKTISKAKGQPREPQVYTLPPSRDELTKNQVSLTCLVKGFYPSDIAVEWESNGQPENNYKTTPPVLDSDGSFFLYSKLTVDKSRWQQGNVFSCSVMHEALHNHYTQKSLSLSPG
notes: also called variant ICOSL vIgD-Fc fusion molecule; ICOS-IgV Fc (N52H/N57Y/Q100R)
With B2, the binding result in [4], in [5], in experiment [6], in experiment [7], in experiment [8] and in experiment [9] was “binds” throughout. Further, the binding result in experiment [10] and in experiment [11] was “binds” throughout.

The values are drawn from patent US20220218785A1 (ALPINE IMMUNE SCIENCES, published 2022).
